T1: Grhl1 DBD (Homo sapiens, UniProt Q9NZI5 248-485)
T1 sequence: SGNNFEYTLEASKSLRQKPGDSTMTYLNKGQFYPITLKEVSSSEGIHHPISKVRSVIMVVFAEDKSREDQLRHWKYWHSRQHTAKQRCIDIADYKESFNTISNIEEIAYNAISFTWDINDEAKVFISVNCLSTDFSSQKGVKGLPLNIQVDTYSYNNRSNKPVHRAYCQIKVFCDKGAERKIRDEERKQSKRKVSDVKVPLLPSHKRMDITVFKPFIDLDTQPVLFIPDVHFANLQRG

B1: Mut_12mer (dsDNA)
DNA 1: AAAATCGATTTT
DNA 2: AAAATCGATTTT
B2: ΔN_Grhl1 (N-terminal truncation construct of human Grhl1, aa 248–618; DBD plus dimerization domain) (domain or fragment, UniProt Q9NZI5 248-618, looked up)
chain: SGNNFEYTLEASKSLRQKPGDSTMTYLNKGQFYPITLKEVSSSEGIHHPISKVRSVIMVVFAEDKSREDQLRHWKYWHSRQHTAKQRCIDIADYKESFNTISNIEEIAYNAISFTWDINDEAKVFISVNCLSTDFSSQKGVKGLPLNIQVDTYSYNNRSNKPVHRAYCQIKVFCDKGAERKIRDEERKQSKRKVSDVKVPLLPSHKRMDITVFKPFIDLDTQPVLFIPDVHFANLQRGTHVLPIASEELEGEGSVLKRGPYGTEDDFAVPPSTKLARIEEPKRVLLYVRKESEEVFDALMLKTPSLKGLMEAISDKYDVPHDKIGKIFKKCKKGILVNMDDNIVKHYSNEDTFQLQIEEAGGSYKLTLTEI

Key:
Grhl1 DBD = target: T1, Grhl1 DBD; assay: ITC
SEC-RALS = target: the molecule itself; assay: SEC-RALS

Binder | binding result (Grhl1 DBD) | stoichiometry N (SEC-RALS)
B1 | no binding | 
B2 |  | 2

From paper PMC5829564 (Nucleic Acids Research, 2018)
